Here are results for 17 molecules from PMC4242096 (Nature structural & molecular biology, 2013).

B1: S. cerevisiae Cks (Cks1), wild type (natural protein, UniProt P20486 1-150, looked up)
chain: MYHHYHAFQGRKLTDQERARVLEFQDSIHYSPRYSDDNYEYRHVMLPKAMLKVIPSDYFNSEVGTLRILTEDEWRGLGITQSLGWEHYECHAPEPHILLFKRPLNYEAELRAATAAAQQQQQQQQQQQQQQQQHQTQSISNDMQVPPQIS

Experiment [1] concerns the target phosSic1ΔC ΔC (Saccharomyces cerevisiae) (UniProt P38634). The note with it: cited from earlier work.
The target of experiment [2] is phosSic1 N-terminus N-terminus (Saccharomyces cerevisiae) (UniProt P38634). Particulars: cited from earlier work.
For another experiment, the target named is T1, S. cerevisiae Cks (Cks1) (Saccharomyces cerevisiae, UniProt P20486).
T1 sequence (P20486 1-150): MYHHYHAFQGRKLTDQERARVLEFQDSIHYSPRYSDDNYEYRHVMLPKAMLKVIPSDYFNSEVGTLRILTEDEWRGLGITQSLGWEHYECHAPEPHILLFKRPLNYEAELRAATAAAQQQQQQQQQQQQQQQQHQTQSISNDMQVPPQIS
The experiment can be described thus: Isothermal titration calorimetry. The experiment is classed as binding. The note with it: ITC; for Cks1 Kd (µM): phosphorylated Cdk substrate peptides, value ± error as printed.

Another experiment deals with phosphorylated Cdc6^1–48 (UniProt P09119). Put plainly: ITC.
Experiment [3] addresses T2, Cdc6^(1–48;T23A T39A S43A), only T7 phosphorylated (UniProt P09119 1-48, T23A | T39A | S43A, only T7 phosphorylated).
T2 chain (looked up): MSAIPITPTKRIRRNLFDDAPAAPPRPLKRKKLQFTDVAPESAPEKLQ
The experiment can be described thus: ITC.

Experiment [4] addresses T3, Cdc6^(1–48;T7A T39A S43A), only T23 phosphorylated (UniProt P09119 1-48, T7A | T39A | S43A, only T23 phosphorylated).
T3 chain (looked up): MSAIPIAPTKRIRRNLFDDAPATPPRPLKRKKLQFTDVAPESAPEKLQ
Put plainly: ITC. For orientation: Isothermal titration calorimetry measures the heat released or taken up as one component is titrated into another.

Experiment [5] deals with B1. The experiment can be described thus: ITC.

Non-standard residues stand in square brackets, D forms with d. No end group written: not given here. pY = N[C@@H](Cc1ccc(OP(=O)(O)O)cc1)C(=O)O; pT = C[C@@H](OP(=O)(O)O)[C@H](N)C(=O)O; pS = N[C@@H](COP(=O)(O)O)C(=O)O

The Kd is the free concentration of one partner at which half of the binding sites on the other are occupied at equilibrium, for simple one-to-one binding. In general, stoichiometry N refers to a count of units in the complex or per binding partner.

Chain of phosSic1ΔC ΔC (Saccharomyces cerevisiae) (P38634 1-215, stated change not applied): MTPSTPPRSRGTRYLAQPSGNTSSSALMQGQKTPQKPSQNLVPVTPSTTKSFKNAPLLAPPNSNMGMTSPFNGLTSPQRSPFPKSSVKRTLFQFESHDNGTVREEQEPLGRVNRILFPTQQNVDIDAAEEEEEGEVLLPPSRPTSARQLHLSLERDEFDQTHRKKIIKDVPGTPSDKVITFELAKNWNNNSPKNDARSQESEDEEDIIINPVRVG
Chain of phosSic1 N-terminus N-terminus (Saccharomyces cerevisiae) (P38634 1-100): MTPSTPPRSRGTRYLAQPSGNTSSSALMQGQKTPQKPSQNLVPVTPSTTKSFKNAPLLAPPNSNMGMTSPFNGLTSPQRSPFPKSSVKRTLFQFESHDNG

As for Cks1 (from UniProt P20486), the Kd in experiment [1] is 20 µM; in experiment [2], 11 µM.
For the molecule “phosCdc6^1–48: purified N-terminal domain of Cdc6 (residues 1–48) phosphorylated with recombinant Cdk (MSAIPI[pT]PTKRIRRNLFDDAPA[pT]PPRPLKRKKLQFTDV[pT]PES[pS]PEKLQ)”, in the experiment with S. cerevisiae Cks (Cks1) (data fit to a one site model), the “stoichiometry parameter n (Cks1 molecules per Cdc6 molecule)” value is listed as “≈ 2”.
For the molecule SAIPI[pS]PTK [phosCdc6^2–10; pT7pS], the “Cks1 Kd (µM)” value on S. cerevisiae Cks (Cks1) is “no heat”.
On to “S. cerevisiae Cks (Cks1), wild type (from UniProt P20486 1-150) (natural protein)”, for which, in the experiment with phosphorylated Cdc6^1–48, the Kd was found to be 9.8 µM and the stoichiometry N is 2.
Take SAIPI[pY]PTK [phosCdc6^2–10; pT7pY]: at S. cerevisiae Cks (Cks1), the “Cks1 Kd (µM)” value is listed as “no heat”.
Turning to B1, the “stoichiometry N” value in experiment [3] and in experiment [4] was roughly 1 throughout.

B2: phosSic1^2–9 (peptide)
peptide: TPS[pT]PPRS
The molecule B2 registered a Kd in experiment [5] of 95 ± 8 µM.

B3: phosCdc6^3–8 (peptide)
peptide: AIPI[pT]P
With B3, the Kd in experiment [5] was 81 ± 6 µM.

B4: phosCdc6^3–9 (peptide)
peptide: AIPI[pT]PT
On to B4, for which the dissociation constant (Kd) in experiment [5] was determined as 61 ± 9 µM.

B5: phosCdc6^2–10 (peptide)
peptide: SAIPI[pT]PTK
In turn, B5 showed a Kd in experiment [5] of 130 ± 60 µM.

B6: phosSwe1^369–376 (peptide)
peptide: EEIS[pT]PTR
Regarding B6, binding in experiment [5] was characterised by a dissociation constant (Kd) of 160 ± 70 µM.

B7: phosSic1^(2–9; P7T) (peptide)
peptide: TPS[pT]PTRS
Regarding B7, the affinity in experiment [5], expressed as Kd, was 70 ± 20 µM.

B8: phosSic1^(2–9; P7K) (peptide)
peptide: TPS[pT]PKRS
The molecule B8 gave a Kd in experiment [5] of 120 ± 20 µM.

B9: phosSic1^(2–9; P3Y) (peptide)
peptide: TYS[pT]PPRS
B9 had a Kd in experiment [5] of 90 ± 50 µM.

B10: phosSwe1^192–199 (peptide)
peptide: RIPE[pT]PVK
The molecule B10 displayed a Kd in experiment [5] of 60 ± 10 µM.

B11: phosCdc6^2–8 (peptide)
peptide: SAIPI[pT]P
In the case of B11, in experiment [5], the Kd is 62 ± 2 µM.

B12: phosSwe1^117–124 (peptide)
peptide: ESVT[pT]PIT
With B12, in experiment [5], the Kd is 170 ± 90 µM.
